From US20240141364

Experiments:
Assay in all cases: cell_activity
[1] = test system: SB03758 degron-A(EAAAK)3A-ZF10-minKRAB (synthetic construct); conditions: mCherry increase with 1 uM pomalidomide vs no drug (release of repression); U87-MG
[2] = test system: SB03759 degron-A(EAAAK)3A-ZF10-1-minKRAB (synthetic construct); conditions: mCherry increase with 1 uM pomalidomide vs no drug (release of repression); U87-MG; text describes the reporter as SEQ ID NO 56 core promoter with four …
[3] = test system: SB03936 degron-A(EAAAK)3A-HDAC4-ZF10-1 (synthetic construct); conditions: mCherry increase with 1 uM pomalidomide vs no drug; represses without drug; U87-MG
[4] = test system: SB03937 ZF10-HDAC4-ecpd-degron (synthetic construct); conditions: mCherry increase with 1 uM pomalidomide vs no drug; represses without drug; U87-MG

Measured: activity

Chain of SB03758 degron-A(EAAAK)3A-ZF10-minKRAB (synthetic construct) (chain, as listed by the source): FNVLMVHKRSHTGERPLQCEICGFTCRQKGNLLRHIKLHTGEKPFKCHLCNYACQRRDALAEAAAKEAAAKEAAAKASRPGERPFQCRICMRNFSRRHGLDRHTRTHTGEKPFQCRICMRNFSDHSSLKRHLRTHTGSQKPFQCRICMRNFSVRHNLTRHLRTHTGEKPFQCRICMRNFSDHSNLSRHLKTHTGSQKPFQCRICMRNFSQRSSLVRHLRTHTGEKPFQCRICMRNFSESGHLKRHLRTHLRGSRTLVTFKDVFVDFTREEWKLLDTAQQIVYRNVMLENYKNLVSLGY
Chain of SB03759 degron-A(EAAAK)3A-ZF10-1-minKRAB (synthetic construct) (chain, as listed by the source): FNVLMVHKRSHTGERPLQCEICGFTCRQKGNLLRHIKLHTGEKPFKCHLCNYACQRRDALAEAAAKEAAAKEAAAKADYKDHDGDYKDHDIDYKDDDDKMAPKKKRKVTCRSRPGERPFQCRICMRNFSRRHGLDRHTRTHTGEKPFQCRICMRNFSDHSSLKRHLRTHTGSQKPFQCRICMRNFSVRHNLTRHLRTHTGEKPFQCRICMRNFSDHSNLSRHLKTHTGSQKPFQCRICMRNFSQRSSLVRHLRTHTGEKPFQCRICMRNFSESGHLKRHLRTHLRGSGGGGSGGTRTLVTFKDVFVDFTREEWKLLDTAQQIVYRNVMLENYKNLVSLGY
Chain of SB03936 degron-A(EAAAK)3A-HDAC4-ZF10-1 (synthetic construct) (chain, as listed by the source): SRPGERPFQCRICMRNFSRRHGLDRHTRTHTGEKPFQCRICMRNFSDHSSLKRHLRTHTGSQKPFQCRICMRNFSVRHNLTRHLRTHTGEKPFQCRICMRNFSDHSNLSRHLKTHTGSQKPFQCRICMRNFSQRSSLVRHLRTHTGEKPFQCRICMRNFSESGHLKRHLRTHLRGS

CGGGTTTCGTAACAATCGCATGAGGATTCGCAACGCCTTCGGCGTAGCCGATGTCGCGCTCCCGTCTCAGTAAAGGTCGGCGTAGCCGATGTCGCGCAATCGGACTGCCTTCGTACGGCGTAGCCGATGTCGCGCGTATCAGTCGCCTCGGAACGGCGTAGCCGATGTCGCGCATTCGTAAGAGGCTCACTCTCCCTTACACGGAGTGGATAACTAGTTCTAGAGGGTATATAATGGGGGCCA (double strand) [4xZF10-1 binding sites + core promoter (mCherry reporter)]
> 4 fold: all assays above
